From US20200308270A1 (Zymeworks, published 2020)

T1: human recombinant FcgammaR receptor CD32aR (human, UniProt P12318 34-217, limits assumed)
T1 sequence (looked up): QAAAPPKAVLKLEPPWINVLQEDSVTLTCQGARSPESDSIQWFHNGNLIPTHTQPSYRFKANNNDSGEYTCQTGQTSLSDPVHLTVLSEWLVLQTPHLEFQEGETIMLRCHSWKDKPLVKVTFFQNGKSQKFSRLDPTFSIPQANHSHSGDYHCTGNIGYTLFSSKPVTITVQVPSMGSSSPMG


Columns and labels:
[1] = target: T1, human recombinant FcgammaR receptor …; assay: SPR (ProteOn), Mab captured via anti-human Fc, FcgammaR analyte
Procedure: (§1) Goat polyclonal anti-human Fc antibody was purchased from Jackson Immuno Research Laboratories Inc. (West Grove, Pa.). […] Human recombinant FcγR receptors: CD16aV, CD32bF, CD32aR, and CD32aH were expressed as constructs containing a His10-tag at the C-terminus and purified by Ni-affinity chromatography followed by His-tag removal and SEC purification.
(§2) FcγR affinity determination was carried out as follows. The screening of Mabs for binding to various FcγR receptors occurred in two steps: an indirect capture of Mab samples onto the anti-human Fc-specific polyclonal antibody surface, followed by the injection of five concentrations of each of FcγR receptors. The anti-human Fc surface was prepared on a GLC sensorchip by amine coupling. GLC sensorchip surface was activated by a 1:10 dilution of the standard BioRad sNHS/EDC solutions injected for 140s at 100 μL/min in the analyte (horizontal) direction. Immediately after the activation, 25 microg/mL solution of anti-human Fc in 10 mM NaOAc pH 4.5 was injected in the analyte direction at a flow rate of 25 microL/min for 240s until approximately 4500 or 2500 resonance units (RUs) were immobilized. Remaining active groups were quenched by a 300s injection of 1M ethanolamine at 30 μL/min also in the analyte direction. Mabs for analysis were indirectly captured onto the anti-human Fc surface by injecting 10 microg/ml solutions in the ligand (vertical) direction at a flow rate of 25 microL/min for 240s. Each of the FcγR receptors was subsequently injected in the analyte (horizontal) direction. Firstly, two buffer injections for 30s at 100 microL/min in the analyte (horizontal) direction were used to stabilize the baseline. Five concentrations of a three-fold dilution series of each of the four FcγR receptors starting at 10 μM with a blank buffer control were then simultaneously injected at 50 microL/min for 120 s with a 3 minute dissociation phase, resulting in a set of binding sensorgrams with a buffer reference. […] Sensorgrams were aligned and double-referenced using the buffer blank injection and interspots, and the resulting sensorgrams were analyzed using ProteOn Manager software v3.1.

[2] = target: human recombinant FcgammaR receptor CD16aV (human, UniProt P08637 17-208, limits assumed); assay: as above
Procedure: as §1, §2

[3] = target: T2, recombinant human IL-17A (human, UniProt Q16552 20-155, limits assumed); assay: SPR (ProteOn), IL-17A immobilized, Mab analyte
T2 construct: Bought reagent
Procedure: (§3) IL-17 affinity determination was carried out as follows. The IL-17A surface was generated using a GLC sensorchip activated by a 1:10 dilution of the standard BioRad sNHS/EDC solutions injected for 140s at 100 pt/min in the ligand (vertical) direction. Immediately after the activation, 1 to 4 microg/mL solution of IL-17A in 10 mM NaOAc pH 4.5 was injected in the ligand (vertical) direction at a flow rate of 25 or 100 microL/min until approximately 75-200 resonance units (RUs) were immobilized. Remaining active groups were quenched by a 140s injection of 1M ethanolamine at 100 μL/min also in the ligand direction. […] Firstly, two buffer injections for 30s at 100 microL/min in the analyte (horizontal) direction were used to stabilize the baseline. […] Sensorgrams were aligned and double-referenced using the buffer blank injection and interspots, and the resulting sensorgrams were analyzed using ProteOn Manager software v3.1. The double-referenced sensorgrams were fit to the Langmuir binding model.

[4] = target: T3, human recombinant FcRn (human, UniProt P55899 24-297; P61769 21-119, limits assumed); assay: SPR (ProteOn), FcRn immobilized, Mab analyte, pH 5.8
T3 construct: also called neonatal receptor
Procedure: FcRn affinity determination was carried out as follows. FcRn surface was generated using a GLC sensorchip activated by a 1:10 dilution of the standard BioRad sNHS/EDC solutions injected for 140s at 100 μL/min in the ligand (vertical) direction. Immediately after the activation, 10 microg/mL solution of FcRn in 10 mM NaOAc pH 4.5 was injected in the ligand (vertical) direction at a flow rate of 25 microL/min for 120s until approximately 2000 resonance units (RUs) were immobilized. Remaining active groups were quenched by a 140s injection of 1M ethanolamine at 30 μL/min also in the ligand direction. The running buffer used on the FcRn surface was PBST pH 5.8. The screening of the Mabs for binding to FcRn was performed by injection of purified Mabs in the analyte (horizontal) direction. Firstly, two buffer injections for 30s at 100 microL/min in the analyte (horizontal) direction were used to stabilize the baseline. Five concentrations of a three-fold dilution series of each Mab starting at 100 nM with a blank buffer control were simultaneously injected at 50 microL/min for 120 s with a 10 minute dissociation phase, resulting in a set of binding sensorgrams with a buffer reference. […] Sensorgrams were aligned and double-referenced using the buffer blank injection and interspots, and the resulting sensorgrams were analyzed using ProteOn Manager software v3.1. The double-referenced sensorgrams were fit to the Langmuir binding model.

[5] = target: T2, recombinant human IL-17A; assay: SPR (ProteOn), IL-17A immobilized, Fab analyte;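 further: IL-17A amine-coupled on a GLC sensor chip at roughly 75–200 RU, double-referenced sensorgrams fitted with a Langmuir binding model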
Procedure: as §3

T2 sequence (Q16552 20-155 limits assumed): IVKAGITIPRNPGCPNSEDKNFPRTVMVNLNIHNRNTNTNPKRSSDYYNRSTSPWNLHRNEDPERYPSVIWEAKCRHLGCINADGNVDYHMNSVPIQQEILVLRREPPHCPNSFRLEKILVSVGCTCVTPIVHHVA
Chain of human recombinant FcgammaR receptor CD16aV (P08637 17-208 F176V limits assumed): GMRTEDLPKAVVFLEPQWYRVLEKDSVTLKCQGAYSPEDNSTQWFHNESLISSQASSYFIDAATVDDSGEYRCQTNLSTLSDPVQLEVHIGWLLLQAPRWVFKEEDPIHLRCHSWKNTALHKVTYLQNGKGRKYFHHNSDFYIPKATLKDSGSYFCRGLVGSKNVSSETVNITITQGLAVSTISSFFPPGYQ
T3 sequence (P55899 24-297 limits assumed, chain 1 of 2): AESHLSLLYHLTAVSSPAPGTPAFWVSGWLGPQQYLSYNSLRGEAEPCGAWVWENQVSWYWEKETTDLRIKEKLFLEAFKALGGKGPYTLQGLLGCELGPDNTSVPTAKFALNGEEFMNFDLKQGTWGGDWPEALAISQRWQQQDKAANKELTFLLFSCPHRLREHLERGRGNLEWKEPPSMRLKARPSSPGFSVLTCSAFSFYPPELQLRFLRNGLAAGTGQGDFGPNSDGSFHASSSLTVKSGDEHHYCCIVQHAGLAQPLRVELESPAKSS
T3 sequence (P61769 21-119 limits assumed, chain 2 of 2): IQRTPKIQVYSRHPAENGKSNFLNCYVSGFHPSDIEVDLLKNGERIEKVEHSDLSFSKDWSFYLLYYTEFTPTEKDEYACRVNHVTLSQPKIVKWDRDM

| Binder | Kd [3] [nM] | Kd [5] [nM] | other results |
| --- | --- | --- | --- |
| CAT-2200 designed Vlambda-Ckappa chimeric Mab, design 39 (E83A_D85T_T105E_V106I) (antibody, human IgG1, kappa, IgG1 Mab format) heavy: not shown light: NFMLTQPHSVSESPGKTVTISCTRSSGSLANYYVQWYQQRPGSSPTIVIFANNQRPSGVPDRFSGSIDSSSNSASLTISGLKTEDAATYYCQTYDPYSVVFGGGTKLEILRTVAAPSVFIFPPSDEQLKSGTASVVCLLNNFYPREAKVQWKVDNALQSGNSQESVTEQDSKDSTYSLSSTLTLSKADYEKHKVYACEVTHQGLSSPVTKSFNRGEC | 0.044 |  | Kd [1]: 2400 nM; Kd [2]: 1300 nM; Kd [4]: 24.7 nM |
| CAT-2200 designed Vlambda-Ckappa chimeric Fab, design 23 (E83V) (Fab, V domains shown) VH: not shown VL: NFMLTQPHSVSESPGKTVTISCTRSSGSLANYYVQWYQQRPGSSPTIVIFANNQRPSGVPDRFSGSIDSSSNSASLTISGLKTEDVADYYCQTYDPYSVVFGGGTKLTVLR |  | 0.2 |  |
| CAT-2200 designed Vlambda-Ckappa chimeric Fab, design 24 (E83V_T105E) (Fab, V domains shown) VH: not shown VL: NFMLTQPHSVSESPGKTVTISCTRSSGSLANYYVQWYQQRPGSSPTIVIFANNQRPSGVPDRFSGSIDSSSNSASLTISGLKTEDVADYYCQTYDPYSVVFGGGTKLEVLR |  | 0.3 |  |
| CAT-2200 designed Vlambda-Ckappa chimeric Fab, design 25 (E83V_V106I) (Fab, V domains shown) VH: not shown VL: NFMLTQPHSVSESPGKTVTISCTRSSGSLANYYVQWYQQRPGSSPTIVIFANNQRPSGVPDRFSGSIDSSSNSASLTISGLKTEDVADYYCQTYDPYSVVFGGGTKLTILR |  | 0.4 |  |
| CAT-2200 designed Vlambda-Ckappa chimeric Fab, design 26 (E83V_D85T) (Fab, V domains shown) VH: not shown VL: NFMLTQPHSVSESPGKTVTISCTRSSGSLANYYVQWYQQRPGSSPTIVIFANNQRPSGVPDRFSGSIDSSSNSASLTISGLKTEDVATYYCQTYDPYSVVFGGGTKLTVLR |  | 0.3 |  |
| CAT-2200 designed Vlambda-Ckappa chimeric Fab, design 27 (E83V_D85T_T105E) (Fab, V domains shown) VH: not shown VL: NFMLTQPHSVSESPGKTVTISCTRSSGSLANYYVQWYQQRPGSSPTIVIFANNQRPSGVPDRFSGSIDSSSNSASLTISGLKTEDVATYYCQTYDPYSVVFGGGTKLEVLR |  | 0.2 |  |
| CAT-2200 designed Vlambda-Ckappa chimeric Fab, design 28 (E83V_D85V_T105E) (Fab, V domains shown) VH: not shown VL: NFMLTQPHSVSESPGKTVTISCTRSSGSLANYYVQWYQQRPGSSPTIVIFANNQRPSGVPDRFSGSIDSSSNSASLTISGLKTEDVAVYYCQTYDPYSVVFGGGTKLEVLR |  | 0.2 |  |
| CAT-2200 designed Vlambda-Ckappa chimeric Fab, design 29 (E83V_D85T_T105E_V106I) (Fab, V domains shown) VH: not shown VL: NFMLTQPHSVSESPGKTVTISCTRSSGSLANYYVQWYQQRPGSSPTIVIFANNQRPSGVPDRFSGSIDSSSNSASLTISGLKTEDVATYYCQTYDPYSVVFGGGTKLEILR |  | 0.3 |  |
| CAT-2200 designed Vlambda-Ckappa chimeric Fab, design 30 (E83I) (Fab, V domains shown) VH: not shown VL: NFMLTQPHSVSESPGKTVTISCTRSSGSLANYYVQWYQQRPGSSPTIVIFANNQRPSGVPDRFSGSIDSSSNSASLTISGLKTEDIADYYCQTYDPYSVVFGGGTKLTVLR |  | 0.3 |  |
| CAT-2200 designed Vlambda-Ckappa chimeric Fab, design 31 (E83I_T105E) (Fab, V domains shown) VH: not shown VL: NFMLTQPHSVSESPGKTVTISCTRSSGSLANYYVQWYQQRPGSSPTIVIFANNQRPSGVPDRFSGSIDSSSNSASLTISGLKTEDIADYYCQTYDPYSVVFGGGTKLEVLR |  | 0.3 |  |
| CAT-2200 designed Vlambda-Ckappa chimeric Fab, design 32 (E83I_D85T) (Fab, V domains shown) VH: not shown VL: NFMLTQPHSVSESPGKTVTISCTRSSGSLANYYVQWYQQRPGSSPTIVIFANNQRPSGVPDRFSGSIDSSSNSASLTISGLKTEDIATYYCQTYDPYSVVFGGGTKLTVLR |  | 0.3 |  |
| CAT-2200 designed Vlambda-Ckappa chimeric Fab, design 33 (E83I_D85T_T105E) (Fab, V domains shown) VH: not shown VL: NFMLTQPHSVSESPGKTVTISCTRSSGSLANYYVQWYQQRPGSSPTIVIFANNQRPSGVPDRFSGSIDSSSNSASLTISGLKTEDIATYYCQTYDPYSVVFGGGTKLEVLR |  | 0.3 |  |
| CAT-2200 designed Vlambda-Ckappa chimeric Fab, design 34 (E83I_D85T_T105E_V106I) (Fab, V domains shown) VH: not shown VL: NFMLTQPHSVSESPGKTVTISCTRSSGSLANYYVQWYQQRPGSSPTIVIFANNQRPSGVPDRFSGSIDSSSNSASLTISGLKTEDIATYYCQTYDPYSVVFGGGTKLEILR |  | 0.2 |  |
| CAT-2200 designed Vlambda-Ckappa chimeric Fab, design 35 (E83A) (Fab, V domains shown) VH: not shown VL: NFMLTQPHSVSESPGKTVTISCTRSSGSLANYYVQWYQQRPGSSPTIVIFANNQRPSGVPDRFSGSIDSSSNSASLTISGLKTEDAADYYCQTYDPYSVVFGGGTKLTVLR |  | 0.2 |  |
| CAT-2200 designed Vlambda-Ckappa chimeric Fab, design 36 (E83A_T105E) (Fab, V domains shown) VH: not shown VL: NFMLTQPHSVSESPGKTVTISCTRSSGSLANYYVQWYQQRPGSSPTIVIFANNQRPSGVPDRFSGSIDSSSNSASLTISGLKTEDAADYYCQTYDPYSVVFGGGTKLEVLR |  | 0.3 |  |
| CAT-2200 designed Vlambda-Ckappa chimeric Fab, design 37 (E83A_D85T) (Fab, V domains shown) VH: not shown VL: NFMLTQPHSVSESPGKTVTISCTRSSGSLANYYVQWYQQRPGSSPTIVIFANNQRPSGVPDRFSGSIDSSSNSASLTISGLKTEDAATYYCQTYDPYSVVFGGGTKLTVLR |  | 0.2 |  |
| CAT-2200 designed Vlambda-Ckappa chimeric Fab, design 38 (E83A_D85T_T105E) (Fab, V domains shown) VH: not shown VL: NFMLTQPHSVSESPGKTVTISCTRSSGSLANYYVQWYQQRPGSSPTIVIFANNQRPSGVPDRFSGSIDSSSNSASLTISGLKTEDAATYYCQTYDPYSVVFGGGTKLEVLR |  | 0.2 |  |
| CAT-2200 designed Vlambda-Ckappa chimeric Fab, design 39 (E83A_D85T_T105E_V106I) (Fab, V domains shown) VH: not shown VL: NFMLTQPHSVSESPGKTVTISCTRSSGSLANYYVQWYQQRPGSSPTIVIFANNQRPSGVPDRFSGSIDSSSNSASLTISGLKTEDAATYYCQTYDPYSVVFGGGTKLEILR |  | 0.2 |  |
| CAT-2200 wild-type lambda Mab (antibody, human IgG1, lambda, IgG1 Mab format; also called WT) heavy: not shown light: NFMLTQPHSVSESPGKTVTISCTRSSGSLANYYVQWYQQRPGSSPTIVIFANNQRPSGVPDRFSGSIDSSSNSASLTISGLKTEDEADYYCQTYDPYSVVFGGGTKLTVLGQPKAAPSVTLFPPSSEELQANKATLVCLISDFYPGAVTVAWKADSSPVKAGVETTTPSKQSNNKYAASSYLSLTPEQWKSHRSYSCQVTHEGSTVEKTVAPTECS | 0.027 |  | Kd [1]: 2400 nM; Kd [2]: 1200 nM; Kd [4]: 14.2 nM |
| CAT-2200 designed Vlambda-Ckappa chimeric Mab, design 37 (E83A_D85T) (antibody, human IgG1, kappa, IgG1 Mab format) heavy: not shown light: NFMLTQPHSVSESPGKTVTISCTRSSGSLANYYVQWYQQRPGSSPTIVIFANNQRPSGVPDRFSGSIDSSSNSASLTISGLKTEDAATYYCQTYDPYSVVFGGGTKLTVLRTVAAPSVFIFPPSDEQLKSGTASVVCLLNNFYPREAKVQWKVDNALQSGNSQESVTEQDSKDSTYSLSSTLTLSKADYEKHKVYACEVTHQGLSSPVTKSFNRGEC | 0.048 |  | Kd [1]: 2400 nM; Kd [2]: 1400 nM; Kd [4]: 23.4 nM |
| CAT-2200 Vlambda-Ckappa chimeric Mab (antibody, human IgG1, kappa, IgG1 Mab format; chimeric light chain without stabilizing substitutions; also called chimera) heavy: not shown light: NFMLTQPHSVSESPGKTVTISCTRSSGSLANYYVQWYQQRPGSSPTIVIFANNQRPSGVPDRFSGSIDSSSNSASLTISGLKTEDEADYYCQTYDPYSVVFGGGTKLTVLRTVAAPSVFIFPPSDEQLKSGTASVVCLLNNFYPREAKVQWKVDNALQSGNSQESVTEQDSKDSTYSLSSTLTLSKADYEKHKVYACEVTHQGLSSPVTKSFNRGEC | 0.042 |  | Kd [1]: 2500 nM; Kd [4]: 14.3 nM |
| CAT-2200 designed Vlambda-Ckappa chimeric Mab, design 29 (E83V_D85T_T105E_V106I) (antibody, human IgG1, kappa, IgG1 Mab format) heavy: not shown light: NFMLTQPHSVSESPGKTVTISCTRSSGSLANYYVQWYQQRPGSSPTIVIFANNQRPSGVPDRFSGSIDSSSNSASLTISGLKTEDVATYYCQTYDPYSVVFGGGTKLEILRTVAAPSVFIFPPSDEQLKSGTASVVCLLNNFYPREAKVQWKVDNALQSGNSQESVTEQDSKDSTYSLSSTLTLSKADYEKHKVYACEVTHQGLSSPVTKSFNRGEC | 0.049 |  | Kd [1]: 2300 nM; Kd [2]: 1300 nM; Kd [4]: 27.9 nM |
| CAT-2200 designed Vlambda-Ckappa chimeric Mab, design 26 (E83V_D85T) (antibody, human IgG1, kappa, IgG1 Mab format) heavy: not shown light: NFMLTQPHSVSESPGKTVTISCTRSSGSLANYYVQWYQQRPGSSPTIVIFANNQRPSGVPDRFSGSIDSSSNSASLTISGLKTEDVATYYCQTYDPYSVVFGGGTKLTVLRTVAAPSVFIFPPSDEQLKSGTASVVCLLNNFYPREAKVQWKVDNALQSGNSQESVTEQDSKDSTYSLSSTLTLSKADYEKHKVYACEVTHQGLSSPVTKSFNRGEC | 0.048 |  |  |
| CAT-2200 designed Vlambda-Ckappa chimeric Mab, design 18 (E83F_D85T_T105E) (antibody, human IgG1, kappa, V domains shown, IgG1 Mab format) VH: not shown VL: NFMLTQPHSVSESPGKTVTISCTRSSGSLANYYVQWYQQRPGSSPTIVIFANNQRPSGVPDRFSGSIDSSSNSASLTISGLKTEDFATYYCQTYDPYSVVFGGGTKLEVLR | 0.048 |  |  |
| CAT-2200 designed Vlambda-Ckappa chimeric Mab, design 32 (E83I_D85T) (antibody, human IgG1, kappa, IgG1 Mab format) heavy: not shown light: NFMLTQPHSVSESPGKTVTISCTRSSGSLANYYVQWYQQRPGSSPTIVIFANNQRPSGVPDRFSGSIDSSSNSASLTISGLKTEDIATYYCQTYDPYSVVFGGGTKLTVLRTVAAPSVFIFPPSDEQLKSGTASVVCLLNNFYPREAKVQWKVDNALQSGNSQESVTEQDSKDSTYSLSSTLTLSKADYEKHKVYACEVTHQGLSSPVTKSFNRGEC | 0.05 |  |  |
| CAT-2200 designed Vlambda-Ckappa chimeric Mab, design 34 (E83I_D85T_T105E_V106I) (antibody, human IgG1, kappa, IgG1 Mab format) heavy: not shown light: NFMLTQPHSVSESPGKTVTISCTRSSGSLANYYVQWYQQRPGSSPTIVIFANNQRPSGVPDRFSGSIDSSSNSASLTISGLKTEDIATYYCQTYDPYSVVFGGGTKLEILRTVAAPSVFIFPPSDEQLKSGTASVVCLLNNFYPREAKVQWKVDNALQSGNSQESVTEQDSKDSTYSLSSTLTLSKADYEKHKVYACEVTHQGLSSPVTKSFNRGEC | 0.053 |  |  |
